# Reference: paper PMC5004148
# Assays:
# [1] = biological target: transmembrane truncated VP24 (residues 28-208) (White spot syndrome virus (WSSV)); assay: crystal structure; X-ray, SAD phasing, 2.4 Å, space group I 2(1) 3; trimer by the crystallographic three-fold axis; 0.1 M Tris-HCl pH 8.5, 2.75 M ammonium acetate, 10 mM ATP as additive, 16 °C
# [2] = biological target: transmembrane truncated VP24 (residues 28-208) (White spot syndrome virus (WSSV)); assay: cross-linking; purified VP24 in PBS (around 0.6 mg/ml in 40 ul) with rising glutaraldehyde, room temperature, 4 h; 15% SDS-PAGE, Coomassie blue
substance,measurement,setting,value
transmembrane truncated VP24 (residues 28-208) (domain or fragment),stoichiometry N,[1],3
same,stoichiometry N,[2],3
